According to article PMC9482650, “Quantitative fragmentomics allow affinity mapping of interactomes” (Nature Communications, 2022):

T1: MPDZ_10, O75970
T1 sequence (O75970 1624-1722, limits assumed, looked up): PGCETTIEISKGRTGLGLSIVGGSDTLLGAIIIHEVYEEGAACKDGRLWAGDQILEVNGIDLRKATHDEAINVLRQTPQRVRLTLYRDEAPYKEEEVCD

T2: TIAM2, Q8IVF5
T2 sequence (Q8IVF5 885-986, limits assumed, looked up): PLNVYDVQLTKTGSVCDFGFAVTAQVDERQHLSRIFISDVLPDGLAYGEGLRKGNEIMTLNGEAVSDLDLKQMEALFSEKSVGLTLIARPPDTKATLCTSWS

T3: GRIP1_7, Q9Y3R0
T3 sequence (Q9Y3R0 999-1096, limits assumed, looked up): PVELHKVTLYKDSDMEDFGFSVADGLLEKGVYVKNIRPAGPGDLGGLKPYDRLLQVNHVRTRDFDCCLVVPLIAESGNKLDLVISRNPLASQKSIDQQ

T4: DFNB31_3, Q9P202
T4 sequence (Q9P202 811-907, limits assumed, looked up): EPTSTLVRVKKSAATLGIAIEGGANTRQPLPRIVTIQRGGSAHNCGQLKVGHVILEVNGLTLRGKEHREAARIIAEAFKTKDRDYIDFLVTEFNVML

T5: LRRC7, Q96NW7
T5 sequence (Q96NW7 1440-1537, limits assumed, looked up): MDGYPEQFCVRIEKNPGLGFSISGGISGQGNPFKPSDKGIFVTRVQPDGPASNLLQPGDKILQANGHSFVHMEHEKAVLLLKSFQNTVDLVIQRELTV

T6: GRIP1_4, Q9Y3R0
T6 sequence (Q9Y3R0 467-571, limits assumed, looked up): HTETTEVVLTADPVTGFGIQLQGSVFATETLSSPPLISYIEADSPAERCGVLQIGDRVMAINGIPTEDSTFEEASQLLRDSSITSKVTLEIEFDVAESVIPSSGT

T7: PARD3B_1, Q8TEW8
T7 sequence (Q8TEW8 196-299, limits assumed, looked up): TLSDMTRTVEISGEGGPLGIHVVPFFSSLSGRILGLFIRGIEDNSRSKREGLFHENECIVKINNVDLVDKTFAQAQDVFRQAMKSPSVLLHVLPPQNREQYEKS

T8: PCLO, Q9Y6V0
T8 sequence (Q9Y6V0 4491-4600, limits assumed, looked up): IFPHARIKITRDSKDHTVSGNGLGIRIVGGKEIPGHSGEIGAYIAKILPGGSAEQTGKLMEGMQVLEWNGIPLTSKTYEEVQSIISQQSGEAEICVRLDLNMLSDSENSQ

T9: DLG3_1, Q92796
T9 sequence (Q92796 125-227, limits assumed, looked up): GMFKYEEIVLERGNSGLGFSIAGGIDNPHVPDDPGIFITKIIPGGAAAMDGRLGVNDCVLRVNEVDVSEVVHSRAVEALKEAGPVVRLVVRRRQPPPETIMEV

T10: SIPA1L2, Q9P2F8
T10 sequence (Q9P2F8 945-1036, limits assumed, looked up): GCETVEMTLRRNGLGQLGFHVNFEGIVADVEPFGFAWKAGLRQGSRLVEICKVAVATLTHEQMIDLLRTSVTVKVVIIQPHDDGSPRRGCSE

T11: LNX2_2, Q8N448
T11 sequence (Q8N448 334-432, limits assumed, looked up): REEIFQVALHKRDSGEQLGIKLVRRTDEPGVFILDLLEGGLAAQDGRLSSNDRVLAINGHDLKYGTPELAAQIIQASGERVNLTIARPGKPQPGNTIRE

B1: CLDN9, O95484 (peptide)
chain: ASGLDKRDYV
B2: PLEKHG7, Q6ZR37 (peptide)
chain: FTLPAESSEI
B3: GAB3, Q8WWW8 (peptide)
chain: EWTDERQSKV
B4: ADGRA2, Q96PE1 (peptide)
chain: TGLWKSETTV
B5: EPHB6, O15197 (peptide)
chain: HLRQQGSVEV

Target: GRID2IP_1, A4D2P6
Test: holdup assay
Set-up: key: below the threshold = too weak to quantify, mostly under pKd 3.1 to 4
Conditions: plain residues with an end cap or a label only (N-terminal biotin on a linker: ado-ado)

GRID2IP_1, A4D2P6, sequence (A4D2P6 1-87): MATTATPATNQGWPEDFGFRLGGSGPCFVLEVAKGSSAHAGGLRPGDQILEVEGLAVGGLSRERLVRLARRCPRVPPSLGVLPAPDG

pKd | Binder
below the threshold | B1
below the threshold | B2
below the threshold | B3
below the threshold | B4
4.13 | B5

Target: HTRA1, Q92743
Test: holdup assay
Set-up: key: below the threshold = too weak to quantify, mostly under pKd 3.1 to 4
Conditions: plain residues with an end cap or a label only (N-terminal biotin on a linker: ado-ado)

HTRA1, Q92743, sequence (Q92743 360-477): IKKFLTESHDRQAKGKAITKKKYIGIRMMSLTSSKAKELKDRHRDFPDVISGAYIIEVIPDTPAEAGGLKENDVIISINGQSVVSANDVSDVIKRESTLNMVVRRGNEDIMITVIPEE

pKd | Binder
3.84 | B1
3.52 | B2
below the threshold | B3
4.27 | B4
4.59 | B5

Target: T1, MPDZ_10, O75970
Test: holdup assay
Set-up: key: below the threshold = too weak to quantify, mostly under pKd 3.1 to 4
Conditions: plain residues with an end cap or a label only (N-terminal biotin on a linker: ado-ado)

pKd | Binder
below the threshold | B1
below the threshold | B2
3.75 | B3
below the threshold | B4
below the threshold | B5

Target: PDLIM1, O00151
Test: holdup assay
Set-up: key: below the threshold = too weak to quantify, mostly under pKd 3.1 to 4
Conditions: plain residues with an end cap or a label only (N-terminal biotin on a linker: ado-ado)

PDLIM1, O00151, sequence (O00151 1-87): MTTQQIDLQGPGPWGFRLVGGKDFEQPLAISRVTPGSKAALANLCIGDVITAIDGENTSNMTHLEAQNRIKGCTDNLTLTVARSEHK

pKd | Binder
below the threshold | B1
below the threshold | B2
below the threshold | B3
below the threshold | B4
below the threshold | B5

Target: AHNAK1, Q09666
Test: holdup assay
Set-up: key: below the threshold = too weak to quantify, mostly under pKd 3.1 to 4
Conditions: plain residues with an end cap or a label only (N-terminal biotin on a linker: ado-ado)

AHNAK1, Q09666, sequence (Q09666 4-100): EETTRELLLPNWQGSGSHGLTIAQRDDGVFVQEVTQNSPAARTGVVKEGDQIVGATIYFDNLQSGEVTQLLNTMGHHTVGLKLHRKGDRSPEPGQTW

pKd | Binder
below the threshold | B1
below the threshold | B2
below the threshold | B3
below the threshold | B4
below the threshold | B5

Target: T2, TIAM2, Q8IVF5
Test: holdup assay
Set-up: key: below the threshold = too weak to quantify, mostly under pKd 3.1 to 4
Conditions: plain residues with an end cap or a label only (N-terminal biotin on a linker: ado-ado)

pKd | Binder
below the threshold | B1
4.04 | B2
below the threshold | B3
below the threshold | B4
below the threshold | B5

Target: DLG4_2, P78352
Test: holdup assay
Set-up: key: below the threshold = too weak to quantify, mostly under pKd 3.1 to 4
Conditions: plain residues with an end cap or a label only (N-terminal biotin on a linker: ado-ado)

DLG4_2, P78352, sequence (P78352 155-259): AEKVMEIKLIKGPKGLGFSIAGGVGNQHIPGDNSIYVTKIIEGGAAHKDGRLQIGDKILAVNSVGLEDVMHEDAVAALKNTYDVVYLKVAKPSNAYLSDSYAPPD

pKd | Binder
below the threshold | B1
below the threshold | B2
4.03 | B3
5.22 | B4
3.72 | B5

Target: TJP1_2, Q07157
Test: holdup assay
Set-up: key: below the threshold = too weak to quantify, mostly under pKd 3.1 to 4
Conditions: plain residues with an end cap or a label only (N-terminal biotin on a linker: ado-ado)

TJP1_2, Q07157, sequence (Q07157 181-274): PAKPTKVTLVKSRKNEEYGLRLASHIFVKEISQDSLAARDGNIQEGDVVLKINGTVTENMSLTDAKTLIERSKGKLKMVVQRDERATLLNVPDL

pKd | Binder
below the threshold | B1
below the threshold | B2
below the threshold | B3
3.6 | B4
below the threshold | B5

Target: DLG1_1, Q12959
Test: holdup assay
Set-up: key: below the threshold = too weak to quantify, mostly under pKd 3.1 to 4
Conditions: plain residues with an end cap or a label only (N-terminal biotin on a linker: ado-ado)

pKd | Binder
below the threshold | B1
below the threshold | B2
3.48 | B3
4.85 | B4
below the threshold | B5

Target: LAP2, Q96RT1
Test: holdup assay
Set-up: key: below the threshold = too weak to quantify, mostly under pKd 3.1 to 4
Conditions: plain residues with an end cap or a label only (N-terminal biotin on a linker: ado-ado)

LAP2, Q96RT1, sequence (Q96RT1 other isoform, or with tags, fused parts or gaps): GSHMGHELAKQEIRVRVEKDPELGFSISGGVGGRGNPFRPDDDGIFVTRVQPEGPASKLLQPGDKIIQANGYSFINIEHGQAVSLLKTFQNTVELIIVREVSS

pKd | Binder
below the threshold | B1
below the threshold | B2
3.56 | B3
3.7 | B4
below the threshold | B5

Target: MAGI2_6, Q86UL8
Test: holdup assay
Set-up: key: below the threshold = too weak to quantify, mostly under pKd 3.1 to 4
Conditions: plain residues with an end cap or a label only (N-terminal biotin on a linker: ado-ado)

MAGI2_6, Q86UL8, sequence (Q86UL8 1141-1229): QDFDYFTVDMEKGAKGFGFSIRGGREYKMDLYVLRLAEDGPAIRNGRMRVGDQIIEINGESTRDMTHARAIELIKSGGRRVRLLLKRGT

pKd | Binder
below the threshold | B1
below the threshold | B2
3.53 | B3
3.85 | B4
below the threshold | B5

Target: T3, GRIP1_7, Q9Y3R0
Test: holdup assay
Set-up: key: below the threshold = too weak to quantify, mostly under pKd 3.1 to 4
Conditions: plain residues with an end cap or a label only (N-terminal biotin on a linker: ado-ado)

pKd | Binder
below the threshold | B1
below the threshold | B2
below the threshold | B3
below the threshold | B4
below the threshold | B5

Target: T4, DFNB31_3, Q9P202
Test: holdup assay
Set-up: key: below the threshold = too weak to quantify, mostly under pKd 3.1 to 4
Conditions: plain residues with an end cap or a label only (N-terminal biotin on a linker: ado-ado)

pKd | Binder
below the threshold | B1
3.63 | B2
below the threshold | B3
3.88 | B4
below the threshold | B5

Target: SCRIB_3, Q14160
Test: holdup assay
Set-up: key: below the threshold = too weak to quantify, mostly under pKd 3.1 to 4
Conditions: plain residues with an end cap or a label only (N-terminal biotin on a linker: ado-ado)

SCRIB_3, Q14160, sequence (Q14160 999-1103): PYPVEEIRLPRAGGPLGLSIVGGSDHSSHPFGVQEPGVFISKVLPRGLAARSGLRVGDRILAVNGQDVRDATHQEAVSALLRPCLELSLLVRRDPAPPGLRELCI

pKd | Binder
below the threshold | B1
3.86 | B2
below the threshold | B3
4.4 | B4
below the threshold | B5

Target: MAGI2_3, Q86UL8
Test: holdup assay
Set-up: key: below the threshold = too weak to quantify, mostly under pKd 3.1 to 4
Conditions: plain residues with an end cap or a label only (N-terminal biotin on a linker: ado-ado)

MAGI2_3, Q86UL8, sequence (Q86UL8 600-682): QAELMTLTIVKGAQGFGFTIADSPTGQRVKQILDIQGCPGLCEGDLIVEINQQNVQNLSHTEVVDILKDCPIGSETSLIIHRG

pKd | Binder
below the threshold | B1
below the threshold | B2
below the threshold | B3
below the threshold | B4
below the threshold | B5

Target: NOS1, P29475
Test: holdup assay
Set-up: key: below the threshold = too weak to quantify, mostly under pKd 3.1 to 4
Conditions: plain residues with an end cap or a label only (N-terminal biotin on a linker: ado-ado)

NOS1, P29475, sequence (P29475 9-101): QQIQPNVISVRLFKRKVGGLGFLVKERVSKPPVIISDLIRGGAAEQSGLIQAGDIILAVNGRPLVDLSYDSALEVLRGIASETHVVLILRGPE

pKd | Binder
4.22 | B1
below the threshold | B2
below the threshold | B3
3.56 | B4
3.88 | B5

Target: T5, LRRC7, Q96NW7
Test: holdup assay
Set-up: key: below the threshold = too weak to quantify, mostly under pKd 3.1 to 4
Conditions: plain residues with an end cap or a label only (N-terminal biotin on a linker: ado-ado)

pKd | Binder
below the threshold | B1
below the threshold | B2
below the threshold | B3
3.56 | B4
below the threshold | B5

Target: T6, GRIP1_4, Q9Y3R0
Test: holdup assay
Set-up: key: below the threshold = too weak to quantify, mostly under pKd 3.1 to 4
Conditions: plain residues with an end cap or a label only (N-terminal biotin on a linker: ado-ado)

pKd | Binder
below the threshold | B1
below the threshold | B2
below the threshold | B3
below the threshold | B4
below the threshold | B5

Target: T7, PARD3B_1, Q8TEW8
Test: holdup assay
Set-up: key: below the threshold = too weak to quantify, mostly under pKd 3.1 to 4
Conditions: plain residues with an end cap or a label only (N-terminal biotin on a linker: ado-ado)

pKd | Binder
below the threshold | B1
below the threshold | B2
below the threshold | B3
below the threshold | B4
3.69 | B5

Target: T8, PCLO, Q9Y6V0
Test: holdup assay
Set-up: key: below the threshold = too weak to quantify, mostly under pKd 3.1 to 4
Conditions: plain residues with an end cap or a label only (N-terminal biotin on a linker: ado-ado)

pKd | Binder
below the threshold | B1
below the threshold | B2
below the threshold | B3
below the threshold | B4
below the threshold | B5

Target: NHERF4_2, Q86UT5
Test: holdup assay
Set-up: key: below the threshold = too weak to quantify, mostly under pKd 3.1 to 4
Conditions: plain residues with an end cap or a label only (N-terminal biotin on a linker: ado-ado)

NHERF4_2, Q86UT5, sequence (Q86UT5 220-308): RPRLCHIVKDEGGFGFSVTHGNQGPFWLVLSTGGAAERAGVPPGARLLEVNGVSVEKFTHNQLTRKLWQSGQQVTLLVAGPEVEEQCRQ

pKd | Binder
below the threshold | B1
below the threshold | B2
below the threshold | B3
below the threshold | B4
below the threshold | B5

Target: Inadl_1, Q8NI35
Test: holdup assay
Set-up: key: below the threshold = too weak to quantify, mostly under pKd 3.1 to 4
Conditions: plain residues with an end cap or a label only (N-terminal biotin on a linker: ado-ado)

Inadl_1, Q8NI35, sequence (Q8NI35 113-229): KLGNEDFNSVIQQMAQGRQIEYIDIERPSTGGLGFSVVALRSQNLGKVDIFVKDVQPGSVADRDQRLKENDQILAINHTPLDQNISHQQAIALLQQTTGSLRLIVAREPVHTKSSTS

pKd | Binder
below the threshold | B1
below the threshold | B2
below the threshold | B3
below the threshold | B4
below the threshold | B5

Target: SCRIB_2, Q14160
Test: holdup assay
Set-up: key: below the threshold = too weak to quantify, mostly under pKd 3.1 to 4
Conditions: plain residues with an end cap or a label only (N-terminal biotin on a linker: ado-ado)

SCRIB_2, Q14160, sequence (Q14160 857-960): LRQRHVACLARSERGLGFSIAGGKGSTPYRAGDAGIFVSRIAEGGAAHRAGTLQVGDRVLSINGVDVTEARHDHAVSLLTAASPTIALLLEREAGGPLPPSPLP

pKd | Binder
below the threshold | B1
below the threshold | B2
below the threshold | B3
4.31 | B4
below the threshold | B5

Target: DLG2_2, Q15700
Test: holdup assay
Set-up: key: below the threshold = too weak to quantify, mostly under pKd 3.1 to 4
Conditions: plain residues with an end cap or a label only (N-terminal biotin on a linker: ado-ado)

DLG2_2, Q15700, sequence (Q15700 189-283): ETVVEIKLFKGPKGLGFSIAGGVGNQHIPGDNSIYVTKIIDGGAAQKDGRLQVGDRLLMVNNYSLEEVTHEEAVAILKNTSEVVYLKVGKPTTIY

pKd | Binder
below the threshold | B1
below the threshold | B2
3.89 | B3
5.16 | B4
below the threshold | B5

Target: T9, DLG3_1, Q92796
Test: holdup assay
Set-up: key: below the threshold = too weak to quantify, mostly under pKd 3.1 to 4
Conditions: plain residues with an end cap or a label only (N-terminal biotin on a linker: ado-ado)

pKd | Binder
below the threshold | B1
below the threshold | B2
3.59 | B3
4.43 | B4
below the threshold | B5

Target: T10, SIPA1L2, Q9P2F8
Test: holdup assay
Set-up: key: below the threshold = too weak to quantify, mostly under pKd 3.1 to 4
Conditions: plain residues with an end cap or a label only (N-terminal biotin on a linker: ado-ado)

pKd | Binder
below the threshold | B1
below the threshold | B2
below the threshold | B3
below the threshold | B4
below the threshold | B5

Target: T11, LNX2_2, Q8N448
Test: holdup assay
Set-up: key: below the threshold = too weak to quantify, mostly under pKd 3.1 to 4
Conditions: plain residues with an end cap or a label only (N-terminal biotin on a linker: ado-ado)

pKd | Binder
3.92 | B1
below the threshold | B2
below the threshold | B3
4.98 | B4
5.03 | B5
